In assay [1] the target is T1, human FSH receptor (human, UniProt P23945 18-695).
T1 construct: whole, on cells; also called hFSH receptors
T1 sequence (looked up): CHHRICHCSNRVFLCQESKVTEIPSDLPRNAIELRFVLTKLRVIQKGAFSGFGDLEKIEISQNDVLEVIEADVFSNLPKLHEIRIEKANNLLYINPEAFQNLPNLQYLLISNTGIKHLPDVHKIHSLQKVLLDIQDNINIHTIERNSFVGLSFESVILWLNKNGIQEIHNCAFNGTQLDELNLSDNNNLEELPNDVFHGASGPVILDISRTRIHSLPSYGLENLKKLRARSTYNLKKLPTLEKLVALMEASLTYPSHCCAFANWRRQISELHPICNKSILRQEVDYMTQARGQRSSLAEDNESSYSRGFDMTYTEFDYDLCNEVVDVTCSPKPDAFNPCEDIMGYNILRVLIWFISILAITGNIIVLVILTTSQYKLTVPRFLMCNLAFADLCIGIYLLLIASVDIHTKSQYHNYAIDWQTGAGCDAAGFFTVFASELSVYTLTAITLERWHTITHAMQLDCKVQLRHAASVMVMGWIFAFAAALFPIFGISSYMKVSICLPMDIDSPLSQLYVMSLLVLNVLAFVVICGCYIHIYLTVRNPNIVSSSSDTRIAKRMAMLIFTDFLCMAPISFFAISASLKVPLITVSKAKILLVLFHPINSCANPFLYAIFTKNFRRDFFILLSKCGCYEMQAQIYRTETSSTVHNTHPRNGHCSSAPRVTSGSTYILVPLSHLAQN
Description: hormone-receptor complex formation (Table 1D).

Assay [2] addresses T2, rat LH receptor (rat, UniProt P16235 27-700).
T2 construct: whole, on cells; also called LH receptors
The assay is described as follows: hormone-receptor complex formation (Table 1D).

The target of assay [3] is T2, rat LH receptor. Description: inhibition of radiolabeled hCG binding to LH receptors (FIG. 22).
The target of assay [4] is T1, human FSH receptor. Description: receptor binding and signal transduction assays.
Assay [5] addresses T2, rat LH receptor. Description: receptor binding and signal transduction assays.
The target of assay [6] is T2, rat LH receptor. The assay is described as follows: inhibition of radiolabeled hCG binding to LH receptors (FIG. 23).
The target in assay [7] is T2, rat LH receptor. The assay is described as follows: competition with radiolabeled hCG on CHO cells expressing LH receptors (FIG. 18).
Description: (§1) These employed CHO cells that had been transfected with the genes encoding the LH receptor cDNA and that therefore express functional LH receptors on their surfaces.
The target in assay [8] is T2, rat LH receptor. The assay is described as follows: inhibition of 125I-hCG binding to 200,000 CHO cells that express LH receptors (FIG. 6).
Description: as §1
Assay [9] deals with T2, rat LH receptor. The assay is described as follows: inhibition of 125I-hCG binding to CHO cells expressing LH receptors (FIG. 17).
Description: as §1
The target of assay [10] is T2, rat LH receptor. Description: inhibition of 125I-hCG binding to CHO cells expressing LH receptors (FIG. 30).
Description: as §1

Numbering of substitutions follows the chain as printed. Numbers in names are those of the source.

T2 sequence (P16235 27-700): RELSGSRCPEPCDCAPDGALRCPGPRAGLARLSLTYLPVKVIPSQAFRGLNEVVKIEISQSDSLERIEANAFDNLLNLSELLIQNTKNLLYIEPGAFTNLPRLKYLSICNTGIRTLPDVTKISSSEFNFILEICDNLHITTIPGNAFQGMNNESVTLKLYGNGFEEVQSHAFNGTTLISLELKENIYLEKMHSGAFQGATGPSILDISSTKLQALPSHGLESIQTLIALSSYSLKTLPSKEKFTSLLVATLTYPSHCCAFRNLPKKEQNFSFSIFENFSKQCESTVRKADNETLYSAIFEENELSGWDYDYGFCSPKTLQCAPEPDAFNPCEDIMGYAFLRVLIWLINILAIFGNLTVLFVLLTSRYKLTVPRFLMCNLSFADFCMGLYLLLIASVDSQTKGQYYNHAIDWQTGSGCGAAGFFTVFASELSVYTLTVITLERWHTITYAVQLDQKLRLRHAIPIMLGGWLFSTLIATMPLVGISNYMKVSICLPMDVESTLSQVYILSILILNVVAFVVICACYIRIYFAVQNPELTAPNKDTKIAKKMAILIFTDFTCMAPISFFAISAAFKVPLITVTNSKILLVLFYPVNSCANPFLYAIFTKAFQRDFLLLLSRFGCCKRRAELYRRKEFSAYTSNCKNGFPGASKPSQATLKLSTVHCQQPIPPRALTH

B1: CF101-109 (ligand)
chain 1: not shown
chain 2: SKEPLRPRCRPINATLAVEKEGCPVCITVNTTICAGYCPTMTRVLQGVLPALPQVVCNYRDVRFESIRLPGCPRGVNPVVSYAVALSCQCALCRRSTTDCTVRGLGPSYCDDPRFQDSSSSKAPPPSLPSPSRLPGPSDTPILPQ
As to B1, the binding result in the assay with human FSH receptor [1] and in the assay with rat LH receptor [2] was “binds” each time.

B2: CFC101-114(α51-β99) (ligand)
chain 1: not shown
chain 2: B1 chain 2 with D99C, D111S, D112F, P113G, R114E
notes: Intersubunit disulfide αCys51-βCys99; also called CFC101(α51-β99)
As to B2, in the assay with rat LH receptor [3], the “fold less active than CFC101-114 in inhibiting radiolabeled hCG binding” value was about 100 fold.

B3: CFC101-114(α-βD99C) (ligand)
chain 1: not shown
chain 2: B1 chain 2 with D99C, D111S, D112F, P113G, R114E
On to B3, for which the binding result with rat LH receptor [3] is “binds”.

B4: CFC101-114 (ligand)
chain 1: not shown
chain 2: B1 chain 2 with D111S, D112F, P113G, R114E
notes: also called bifunctional hCG/hFSH chimeric analog
In the case of B4, the binding result in the assay with human FSH receptor [4] and with rat LH receptor [5] was “binds” throughout.

B5: CFC101-114(αK51A-β) (ligand)
chain 1: not shown
chain 2: B1 chain 2 with D111S, D112F, P113G, R114E
notes: built on the mature α-subunit entry
With B5, the binding result with rat LH receptor [6] was “binds”.

B6: CFC101-114(αK51C-β) (ligand)
chain 1: not shown
chain 2: B1 chain 2 with D111S, D112F, P113G, R114E
On to B6, for which the binding result in the assay with rat LH receptor [3] is reported as “binds”.

B7: hCG(αK51A-β) (ligand)
chain 1: not shown
chain 2: B1 chain 2 with T101G, V102G, R103P, G104K, L105D, G106H, S108L, Y109T
notes: as for B5
With B7, the binding result with rat LH receptor [7] was “binds”.

B8: CFC101-114(α31-β37) (ligand)
chain 1: not shown
chain 2: B1 chain 2 with Y37C, D111S, D112F, P113G, R114E
notes: Intersubunit disulfide αCys31-βCys37
As to B8, the binding result in the assay with human FSH receptor [4] and in the assay with rat LH receptor [5] was “binds” in each case.

B9: hCG(α31-β37) (ligand)
chain 1: not shown
chain 2: B1 chain 2 with Y37C, T101G, V102G, R103P, G104K, L105D, G106H, S108L, Y109T
notes: Intersubunit disulfide αCys31-βCys37; also called hCG3(α31-β37); crosslinked hCG analog
With B9, in the assay with rat LH receptor [8], the binding result was “binds”.

B10: hCG(α-βD99C) (ligand)
chain 1: not shown
chain 2: B1 chain 2 with D99C, T101G, V102G, R103P, G104K, L105D, G106H, S108L, Y109T
notes: also called hCG(α-β99)
Regarding B10, the binding result with rat LH receptor [9] is reported as “binds”.

B11: hCG(α31-β37, α51-β99) (ligand)
chain 1: not shown
chain 2: B1 chain 2 with Y37C, D99C, T101G, V102G, R103P, G104K, L105D, G106H, S108L, Y109T
notes: Two intersubunit disulfides; also called α(C7S,K51C) + hCGβ′(Y37C,D99C)
Turning to B11, in the assay with rat LH receptor [10], the binding result is listed as “binds”.
